# Test results published in article PMC10014274.
# Biological target: VNp-mNeongreen-TEV-etanercept-His6 fusion protein (human)
# Experiment: SDS-PAGE without reducing agent and anti-mNeongreen western blot; VNp-mNG-etanercept purified from E. coli, without DTT
substance,measurement,value
VNp-mNeongreen-TEV-etanercept-His6 fusion protein (Fc fusion),stoichiometry N,2
